From publication PMC5447866 (Oncogene, 2016) come the findings set out here.

This assay has as its target His6-tagged UBR5 recombinant protein (UniProt O95071 1-2799). Description: pull-down.

Chain of His6-tagged UBR5 recombinant protein (O95071 whole entry): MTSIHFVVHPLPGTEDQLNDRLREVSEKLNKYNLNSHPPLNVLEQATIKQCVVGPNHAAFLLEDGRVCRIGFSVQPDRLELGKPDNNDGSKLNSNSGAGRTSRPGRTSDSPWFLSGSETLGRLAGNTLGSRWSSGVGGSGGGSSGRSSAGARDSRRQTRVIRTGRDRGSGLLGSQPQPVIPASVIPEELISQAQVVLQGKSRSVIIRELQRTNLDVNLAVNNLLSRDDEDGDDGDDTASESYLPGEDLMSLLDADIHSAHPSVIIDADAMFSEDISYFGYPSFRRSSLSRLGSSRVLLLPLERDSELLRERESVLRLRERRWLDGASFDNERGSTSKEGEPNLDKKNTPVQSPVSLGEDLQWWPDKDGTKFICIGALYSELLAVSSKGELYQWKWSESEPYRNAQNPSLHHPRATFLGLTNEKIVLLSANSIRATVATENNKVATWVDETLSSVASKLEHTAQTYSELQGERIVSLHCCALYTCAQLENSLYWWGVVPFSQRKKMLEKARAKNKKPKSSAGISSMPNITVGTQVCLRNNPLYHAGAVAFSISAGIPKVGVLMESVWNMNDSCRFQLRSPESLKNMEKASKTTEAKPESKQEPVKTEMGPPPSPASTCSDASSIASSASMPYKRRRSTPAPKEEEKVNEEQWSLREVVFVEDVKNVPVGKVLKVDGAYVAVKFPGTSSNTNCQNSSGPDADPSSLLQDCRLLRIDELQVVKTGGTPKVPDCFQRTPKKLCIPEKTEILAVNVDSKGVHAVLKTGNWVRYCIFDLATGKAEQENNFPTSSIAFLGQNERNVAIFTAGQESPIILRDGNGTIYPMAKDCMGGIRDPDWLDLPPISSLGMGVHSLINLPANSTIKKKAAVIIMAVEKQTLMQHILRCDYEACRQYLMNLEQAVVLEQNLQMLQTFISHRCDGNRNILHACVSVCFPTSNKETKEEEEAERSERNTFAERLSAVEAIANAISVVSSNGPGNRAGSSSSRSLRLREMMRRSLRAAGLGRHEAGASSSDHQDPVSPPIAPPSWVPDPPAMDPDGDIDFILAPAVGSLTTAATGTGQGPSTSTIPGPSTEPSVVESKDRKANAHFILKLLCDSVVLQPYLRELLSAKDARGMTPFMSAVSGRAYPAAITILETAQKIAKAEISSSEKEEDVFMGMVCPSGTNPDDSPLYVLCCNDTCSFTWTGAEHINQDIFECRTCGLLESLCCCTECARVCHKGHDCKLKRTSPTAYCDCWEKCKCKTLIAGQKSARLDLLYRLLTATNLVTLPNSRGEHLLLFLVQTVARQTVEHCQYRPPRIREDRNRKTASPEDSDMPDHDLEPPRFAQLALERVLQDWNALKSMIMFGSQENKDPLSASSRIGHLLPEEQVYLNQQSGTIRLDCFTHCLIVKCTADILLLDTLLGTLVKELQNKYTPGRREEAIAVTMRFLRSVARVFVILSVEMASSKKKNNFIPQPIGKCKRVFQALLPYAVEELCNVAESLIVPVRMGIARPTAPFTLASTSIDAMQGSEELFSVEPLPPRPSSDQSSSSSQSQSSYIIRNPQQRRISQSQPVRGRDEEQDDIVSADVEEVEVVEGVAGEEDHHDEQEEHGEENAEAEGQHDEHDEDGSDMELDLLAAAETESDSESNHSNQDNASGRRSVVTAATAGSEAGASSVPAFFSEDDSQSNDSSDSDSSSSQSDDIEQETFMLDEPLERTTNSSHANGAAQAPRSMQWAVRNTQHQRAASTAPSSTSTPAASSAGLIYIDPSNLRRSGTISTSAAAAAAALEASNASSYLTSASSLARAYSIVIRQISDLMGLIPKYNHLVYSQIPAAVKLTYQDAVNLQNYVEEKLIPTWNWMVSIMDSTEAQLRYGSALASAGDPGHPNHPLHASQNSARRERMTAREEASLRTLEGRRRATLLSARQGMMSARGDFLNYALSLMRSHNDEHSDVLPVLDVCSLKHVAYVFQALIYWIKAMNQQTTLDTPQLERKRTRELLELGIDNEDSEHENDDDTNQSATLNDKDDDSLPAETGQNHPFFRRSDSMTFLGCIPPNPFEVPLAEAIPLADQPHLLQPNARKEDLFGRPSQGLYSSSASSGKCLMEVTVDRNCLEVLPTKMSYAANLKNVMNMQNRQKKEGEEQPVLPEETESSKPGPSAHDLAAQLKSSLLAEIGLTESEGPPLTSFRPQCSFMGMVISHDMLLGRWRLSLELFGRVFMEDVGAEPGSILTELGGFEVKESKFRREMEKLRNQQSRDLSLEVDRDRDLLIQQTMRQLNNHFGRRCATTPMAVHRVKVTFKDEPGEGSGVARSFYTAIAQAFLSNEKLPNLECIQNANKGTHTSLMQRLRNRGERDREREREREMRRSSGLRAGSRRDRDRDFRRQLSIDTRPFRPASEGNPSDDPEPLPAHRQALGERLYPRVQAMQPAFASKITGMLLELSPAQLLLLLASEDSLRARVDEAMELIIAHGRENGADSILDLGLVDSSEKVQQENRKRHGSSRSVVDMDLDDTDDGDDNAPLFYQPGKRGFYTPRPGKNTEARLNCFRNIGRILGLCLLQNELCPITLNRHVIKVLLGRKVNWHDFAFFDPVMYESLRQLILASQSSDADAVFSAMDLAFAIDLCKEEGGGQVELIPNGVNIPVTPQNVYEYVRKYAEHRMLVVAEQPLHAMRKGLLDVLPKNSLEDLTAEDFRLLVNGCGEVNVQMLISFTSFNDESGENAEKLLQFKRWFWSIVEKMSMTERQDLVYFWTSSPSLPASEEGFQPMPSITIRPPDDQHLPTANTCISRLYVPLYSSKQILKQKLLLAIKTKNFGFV

B1: GST-tagged MOAP-1 recombinant protein (natural protein, UniProt Q96BY2 1-351, looked up)
chain: MTLRLLEDWCRGMDMNPRKALLIAGISQSCSVAEIEEALQAGLAPLGEYRLLGRMFRRDENRKVALVGLTAETSHALVPKEIPGKGGIWRVIFKPPDPDNTFLSRLNEFLAGEGMTVGELSRALGHENGSLDPEQGMIPEMWAPMLAQALEALQPALQCLKYKKLRVFSGRESPEPGEEEFGRWMFHTTQMIKAWQVPDVEKRRRLLESLRGPALDVIRVLKINNPLITVDECLQALEEVFGVTDNPRELQVKYLTTYQKDEEKLSAYVLRLEPLLQKLVQRGAIERDAVNQARLDQVIAGAVHKTIRRELNLPEDGPAPGFLQLLVLIKDYEAAEEEEALLQAILEGNFT
For the molecule B1, the binding result is “binds”.
